Experimental data reported in patent publication US20100099079.

System: 5-FAM/QXL 520 NS3 FRET substrate

Q: Recombinant HCV NS3/4A protease was tested. Which “NS3 FRET activity (5-FAM dequenching)” value did it give?
A: The value was “FRET signal increased with increasing amounts of purified NS3, revealing a linear correlation (R^2=0.999) between NS3 protein levels and FRET activity”.
